Measured values as given in the supplement of paper PMC10567573.

B1: C22orf15 (parent)
chain: PRGRAHLLPNPYQQDFLGLPEELR

Variants of: B1
Assay: protein stability index of a GFP-peptide fusion (GPS, HEK-293T) (PSI 1-6); higher = more stable
Settings: c terminus: a fixed tail appended
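Further: lentivirally expressed fusions sorted by FACS into six bins by GFP to DsRed ratio, PSI derived from sequencing read proportions per bin multiplied by bin number.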

Protein stability index: each site, then its substitutions
R24: L 3.47; K 4.12; H 3.3; S 3.7; I 3.64; M 2.97; A 3.05; G 3.8; Q 3.89; N 3.94; P 4.03; E 4.17; D 4.3; T 4.11; C 3.29; F 3.17
L7: W 3.24; Q 3.86; S 4.98; R 4.12; Y 3.92; K 4; H 3.9; N 4.33; T 5.36; G 4.08; V 4.12; M 4.18; I 3.8; F 3.84; P 4.06
P11: N 4.24; R 3.33; W 2.71; Y 3.56; I 3.55; K 4.04; D 4.12; S 3.83; H 3.33; V 3.5; Q 4.35; G 4.3; C 3.51; T 4.1; E 4.74; A 3.41; M 3.72; F 3.44; L 3.42
Y12: H 4.02; V 4.17; N 4.61; A 4.51; F 3.5; D 4.53; P 4.41; C 3.84; R 4.33; E 4.54; T 4.44; K 4.11; I 4.36; G 4.87; W 2.87; L 3.85; S 4.54; Q 4.07; M 4.61
L23: N 4.01; G 4.41; S 4.17; P 3.6; Y 3.88; W 3.45; V 3.68; Q 4.51; D 4.49; F 3.66; C 4.08; A 4.24; K 4.63; T 3.94; R 4.04; M 4.33; H 4.68; I 4.09
E21: F 3.42; L 3.02; A 3.54; R 3.15; T 2.81; H 3.44; Y 2.75; W 2.9; G 3.61; D 3.51; C 3.3; K 3.56; S 3.29; Q 3.06; I 2.89; M 3.14; V 3.1; N 3.63; P 3.6
P9: K 3.73; T 3.61; V 3.71; M 3.8; C 2.66; G 2.77; E 3.89; F 2.94; A 3.66; S 3.88; W 2.53; Q 3.84; R 3.18; N 3.77; D 3.79; Y 3.32; H 3.29; I 2.88; L 3.35
L19: V 4; P 4.22; G 4.05; H 4.21; T 4.26; W 3.75; Q 4.69; N 4.1; E 4.5; R 3.9; M 3.53; S 4; C 4.26; A 4.13; Y 3.82; I 3.57; K 4.28; D 4.68; F 3.31
F16: Q 3.84; W 3.65; C 4.11; Y 4.17; V 4.17; M 4.15; I 4.01; D 4.92; G 4.4; P 4.12; L 4.23; H 4.44; A 4.12; K 4.22; T 4.17; E 4.63; R 4.15; S 3.83; N 4.36
Q13: V 3.59; Y 3.46; D 4.1; M 3.42; I 3.1; C 3.39; G 4.1; E 4.05; R 3.75; L 3.43; K 3.65; A 3.7; H 3.74; P 4.21; N 3.66; T 3.64; W 2.7; S 3.56; F 3.1
P20: K 3.38; H 3.37; F 2.43; D 4.07; E 4.08; Y 2.42; T 3.42; C 2.85; I 2.75; S 3.39; A 3.46; Q 3.53; N 3.62; W 2.26; R 3.23; M 2.78; L 2.76; V 2.46; G 3.14
L8: A 3.58; E 3.96; S 3.93; T 3.23; G 3.59; P 4; Y 3.25; W 2.56; F 3.49; H 3.86; M 3.95; N 4.09; I 3.94; D 4.6; Q 4.24; V 4.02; R 3.56; K 3.98; C 4.14
Q14: S 3.96; C 3.46; R 3.19; D 4.7; M 3.56; N 3.91; K 4.01; W 2.93; E 4.47; G 3.67; P 4.5; F 3.66; T 3.77; I 3.19; V 3.26; H 3.92; A 3.73; Y 2.98; L 3.54
L17: D 4.87; M 3.44; R 4.03; K 4.42; W 3.37; C 4.04; G 3.84; Y 3.6; I 2.85; V 4.52; A 4.43; F 3.47; H 4.41; N 4.28; S 4.2; Q 4.4; T 4.17; P 4.3; E 4.94
N10: Q 4.12; C 3.58; R 3.53; L 3.69; S 4.29; F 3.35; I 3.97; Y 3.46; P 4.07; K 3.77; A 3.95; T 4.05; M 3.54; H 4.06; G 4; V 4.14; W 2.88; E 3.61; D 4.16
G18: E 4.36; T 4.05; V 3.73; C 3.9; N 4.25; P 3.71; K 4.13; R 3.32; Q 4.27; F 3.24; A 4.25; S 3.94; Y 3.34; I 3.49; M 3.98; H 4.19; L 3.7; W 2.98; D 4.66
D15: W 2.98; M 2.97; R 3.74; G 3.44; T 3.44; A 3.38; Y 3.2; N 3.31; K 3.3; Q 3.69; C 2.67; P 3.76; S 3.19; V 3.36; E 3.74; L 2.99; I 3.22; H 3.17; F 2.96
E22: C 3.22; K 3.47; D 4.06; P 3.25; H 3.42; V 3.11; T 4.23; R 3.76; S 3.62; F 3.27; W 2.93; A 3.47; I 2.59; G 3.61; M 2.64; Q 3.57; Y 2.52; L 2.3; N 3.65
